This data set in a line: label from the status in PepcDB records.
“MAPMIPHPPAVLAHRLSEGQRLATPLMRALMRATGTQVDAAIARTIAELGAHCGADRTRVYRIEAGQVLDCTHEWCRSGISEIRPEMQRIPLGTLDRWMPILRRGEPVDVPDLHGLPEDDPAKQQMARHGIRALVLMPLTAGTALTGVVGLSLFRARRPVDPAEMALLHSIAEAMGAALARRDAERRAVAARSAARDVARNLERLARVTELMTNLVIVTDVEQQIVWVNRAFERQTGHSLEAIRGRNFAEVVRGPGTDPGVCAAVAEAIRTCSSCEGETINYTAAGQPYWIRFNAHPLSDADGRYAGHASVETVITDRKVLERELATRNAFLTAVLQTSVSAIVALNAEGGIVYANDEARRLLVLQPHRGGLRMEAVLETLDGRPLPEADMPSALVRATGAPLHDLRYAIRRPDGQFGILSINAAPLPQAADDARIVISVTDITHAEASAERLRRQAAEDPLTGLANRRALADAVETRLTEAAPFALVMLDLDNFKAVNDLQRHDTGDAVLRIAADRLRAVAGADCLVARMGGDEFMVLAPGTDAASAPRLAEALRAAISAPIEVGRQPVHLAASAGIALHPEHGTSMALLMTGADIALHAAKRAGRNRSVLLSQAQFAAEARRSAITQALAADVEADLRLVFQPQFRACGAFDGAEALLRWTDPRLGEIGPAEFIPIAEEAGLIQRIDAHVAVLAARQLGLWARRGWRHRLAVNASAQTFARAGFAEELLQHLAEEDVCPQQLVVELTDTSLATLSSVADHNIATLRRAGVGIAIDDFGTGYASLSYLHRIEATEIKIDRGFVAGLETAERRDSKPLIQAILSLAHALGLAVTAEGVETERQRSWLSAEGCDRLQGYLLGRPLPVEAFEAAFVTPAAVPG”: the protein production result is recorded as “failed”.

With “MAPPAQKGNLRKRSGKTSTAVNSAINENVRKLVRSLSEPGTSQKKLRQMEDTALKIIANQRRTWAPTTTDMEVKRNLDDLAERFRAEGMASFGESIKDLAIRYLAMDENQQQFNPNPGWQMLELLFRIADRPVQKIRLNREFMEQRRLSIINSMEEAERQAQIEEQAKLEAAKNTSETEVDWAALLSEDFLDPPEDDSSDSLSDWSEESDCDSTTTLKPDENIGVSRSLLEMARVYEQAMMAVVPTGSVNKTYMPPEQSVIRSYDFRIMKPTVLSLNNLKGSHLRRSKLLQLPPPQPPRPFTQYWQSGNTDTLFRKIHSHWWCQDVHLNALPSSAKPLDNFAVSYVQFLNHNARGLLALPVPKTITEPCLLREILFMFVRPASCCFFEFDKATRRITVRDNVSICTVTASTMQNFLLFNVVPALEDMMELRHIIDTHTLHFHGVKTTYTVEFFAYGLRDLVQPICQLLIAYEDRVNKDPAKNTLIRFTIEFREHFSQLRLLRELAEDVILDKGPAHIRSAYLLSRLYKHTLLQVPHQKLATALLFISLKRYCIIIDGWWRRAALEDHLREFIVEFCYEEDANTRSHVRKRNMGMEDDLLLVEIFNKLQSCPLYQLLLEHALESGETQDLLCSVNTLSEMLTSNNEIQLPSLHDELFTQFFAQLKVYCGADNTDYEDEPEPDKDYEDLTVCNRQGIRNHELFAIFTQPLVEQRLERQRERLKSNPVLMANILKRLERSTCLQLKSELPEALREILRRRQWLANEYAIRAYCKETQVAEKMRFLRHTMLLEKYYLFVPYYNALFVRMEKNNSWALGSVLTSKLCAVLLPHYPQLAHYLHVKLISQINSNSIKVYEALEAIELDFERPMAMHQWYILTPAHMQDYNSVWRLMLKVKWAVWKLENMQFLRRARFNPCAPLDLIGLTIRRLEIVRFWLIFLINNLHAHIMEAVSRQFELRIGECKNVRELRIMHDEHLAWLKTHCMLTDEFKAFRVALDQIFHLVYVLDMEWTTCASCMHDHDALCLDFTISDDGIDDSETQRRSLEYLALNQVAEIELTYIRCHQMLADILNTLVHQNDHGFLSALEETINSSVPH”, the protein production entry was “failed”.

For the sequence “MAPRDIRPGAEYGDIIEEAIVTCKVFLIVFSETSQISRWVRSELNIGFSSNKPIIPFRIDPTDLKGSMKLMLNDKHWLNAYPNPEEKFSELAAVILDLLQHPAVDTISPPGFQPASNVASADGSNAGAQGLFGKLLNQLFVKRRVKVTSDHAAEIFLNGERKGKLDAYETGNYSVSEDFYQLEVYSCEYGKKVKCEYSGSFSNSSTVIISVDMATAEKQYLMKAKNITSGQINDLGIIFLDEGKFEDAQECFLKAASMGEAAAAYNLGMMYHFGKGVEIDYDVAREYYEEAVKSDYPLALNNLGSIYYNGHGVRKDIAKSFPYFCRAAERGVESAQFTVATMLFYGQGVAVDKAKAKKWFQKAAAQGCKDSQNYLNSWVDDLEHHHHHH”, the protein production entry was “not failed”.

Consider “MAQFLEKATSALSEAKESVTSTAESVTASLTDAEKTVNQTARSTLTDAETTVAASVETVKTEAAAAPDKASGVSTQAKDAVDKAFSRGIEGAKSLLQTFEAKSSDISSKLVGGVTNLVSGASSSTVANRDLPVSTDNQPLLASGEKTPWWKNCCGVLDLFKKDT”, for which the protein production entry is recorded as “failed”.

As for “MAQFLRRFSSSPMANEDEFQSPVEPSQQQSQDCVSESYLIGFVIANIVGLKYYSGRINGREMVGLVREPLNVYDNNAIRVLNTRSEQVGHIERTVAAVLAPMIDSHTIVVEGIVPNTRSNSNRYRIPCQIHVFAKLEASSTVKSTISRGGLVLISESDTSFGLSEAVVVKEQMGNGDKRSVDKIFKLVDENVKLMGKLVAAEPPREVIKSELFAHQKEGLGWLLHREKSGELPPFWEEKDGEFLNTLTNYRSDKRPDPLRGGVFADDMGLGKTLTLLSLIAFDRYGNASTSTPTEEPLDGEGDKIEKKGKKRGRGKSSESVTRKKLKTDDVVGMNVSQKTTLIVCPPSVISAWITQLEEHTVPGILKVYMYHGGERTDDVNELMKYDIVLTTYGTLAVEESWEDSPVKKMEWLRIILDEAHTIKNANAQQSRVVCKLKASRRWAVTGTPIQNGSFDLYSLMAFLRFEPFSIKSYWQSLIQRPLGQGNKKGLSRLQVLMATISLRRTKEKSLIGLPPKTVETCYVELSPEERQLYDHMEGEAKGVVQNLINNGSLMRNYSTVLSIILRLRQLCDDMSLCPPELRSFTTSTSVEDVTDKPELLQKLVAALQDGEDFDCPICISPPTNIIITRCAHIFCRACILQTLQRSKPLCPLCRGSLTQSDLYNAPPPPPDSSNTDGEDAKSSTKSSKVSALLSLLMASRQENPNTKSVVFSQFRKMLLLLETPLKAAGFTILRLDGAMTVKKRTQVIGEFGNPELTGPVVLLASLKASGTGINLTAASRVYLFDPWWNPAVEEQAMDRIHRIGQKQEVKMIRMIARNSIEERVLELQQKKKNLANEAFKRRQKKDEREVNVEDVVALMSL”, the protein production entry is “failed”.

For the sequence “MAQNPERRAALVNAAIEVLAREGARGLTFRAVDVEANVPKGTASNYFPSRDDLFDQVGKRIHERLGPDPSVVEESGRKPQNLELAIEYMQGLFGRITRDRTGYLALQELRLEAVRRPELRTTLTRTISENLKRDIGFHLDSGLPGDRSTVLMLYLAMNALIVEHLTLPGVLEGVDTERLVADLVTRAVATPDA”, the protein production entry was “not failed”.

“MAQREIRLVDNEYPSPSMTHPPIPLSDIALTGIFEISKILTSPARLEITLANVVNLLQSFLQMRNGVVSLLADDGVPDITVGVGWNEGSDNRYRARLPQKAIDQIVATAVPLVADNVSAHPMFTAADAMALGATDEIRVSFIGVPIRIDSRVVGTLSIDRVRDGRSHFRMDADVRFLTMVANLIGQTVKLHRVVARDRERLMAESHRLQKELS”: the protein production result is given as “failed”.

“MAQSFLLMGALIQHHLKGEKADLLTPEKLLEAANKQGTVPSRVRYQWMEDEETGRLKAVGYHTSMESGRDQVRVRLLKHDFPNNRYEFWEEGATGPTILWTPDNPGIELPTDTAHGEQPVIPSAIPGLEIPEMDDVSILATPMPDEKDFRDYILVFPENAFPPIYVYLSKKIDTPIWLEHHHHHH”: the protein production entry is on record as “not failed”.

As to “MAQVINEMDVPSHSFVFHGTGERYFLICVVNVLLTIITLGIYLPWALMKCKRYLYANMEVNGQRFSYGITGGNVFFSCLVFVFFYFAILMTVSADMPLIGCVLTLSLLVLLIFMAAKGLRYQALMTSLNGVRFSFNCSMKGVWWVTFFLPILMAIGMGTVFFISTKMLHANSSSSVIVSVVLMAIVGIVSIGIFNGTLYSLVMSFLWSNTSFGIHRFKVKLDTAYCIKYAILAFLALLPFLAVAGYIIFDQILNAYDSSVYANDDIENLQQFMEMQRKMIIAQLIYYFGIAVSTSYLTVSLRNHFMSNLSLNDGRIRFRSTLTYHGMLYRMCALVVISGITGGLAYPLLKIWMIDWQAKNTYLLGDLDDLPLINKEEQPDKGFLASISRGIMPSLPFL”, the protein production entry is on record as “failed”.

Take “MAQYPEQLNGIFQALADPTRRAVLGRLSRGPATVSELAKPFDMALPSFMKHIHFLEDSGWIRTHKQGRVRTCAIEKEPFTAVEAWLAEQQELWESRTDRLEQFVTEHTVTAHAKATPQ”: the protein production entry is reported as “not failed”.

Consider “MAREFKRSDRVAQEIQKEIAVILQREVKDPRIGMVTVSDVEVSSDLSYAKIFVTFLFDHDEMAIEQGMKGLEKASPYIRSLLGKAMRLRIVPEIRFIYDQSLVEGMRMSNLVTNVVREDEKKHVEESN”, for which the protein production result is listed as “not failed”.

Turning to “MARIIRRPLNLTAAVRFRLSPLSPFSGNSGSINSETTSWSELIRVPSLVEGCDYKHWLVLMKPPNGYPTRNHIVQSFVETLAMALGSEEEAKRSIYSVSTKYYYAFGCRIHEPLTYKIRSLPDVKWVLPDSFIVDGDNRYGGEPFVDGEVVPYDEKYHADWLRDQTDEDAKSGVVKKKHRRKRKKKLI”, the protein production entry is reported as “failed”.

With “MARLILERFLQEHEETPPSKSIINSMLRDPSQIPDGVLANQVYQCIVNDCCYGPLVDCIKHAIGHEHEVLLRDLLLEKNLSFLDEDQLRAKGYDKTPDFILQVPVAVEGHIIHWIESKASFGDECSHHAYLHDQFWSYWNRFGPGLVIYWYGFIQELDCNRERGILLKACFPTNIVTLCHSIA”, the protein production entry is listed as “failed”.

“MARPSGPATMRTTDGGPMRDIDWLLTDAHALRERGELDPARALYDEALEKARATGETEGLAKALRHVSDMDREAGRLEAALAAAEEAATLYGALGREHRLDLANALRLTALALEALGRPALQPWREAGDLYAELDIAAGLAEAERHLGLVVRPAQSVELEPLARLWWQGWRDAHLPIVPEALARLRTLESFTTRMAAALPQVRVLGPVGAPIGLHLIKDDELNQLYLAAEARGAGFAAVLMADAEAHLADAGVRKAWLACAIGNDRAARFYEKSGWTRARAEIVPTETPAGPFPLEVWRYEKVLTRSEPQTL”: the protein production entry is given as “failed”.

Take “MARREICNKGVVAGVQYSHSHRQSKRTWAPNIKKVKAIVKGTPKTVHVCTRCLRSEKFKELYKKSLAKMQFNNCIFILHKNKGLEHHHHHH”: the protein production result is “not failed”.

With “MARSKVKNLLLLKQIHSAVSQIKKGKLDKALETLDKAETSARQSKSTDALYYILFTRGGILYSAKEYDQALEAYEKALEAGSDLLKTDPENADYQHYMGTTLSNTGNLLKKKSEIDKADEYYSQARKIYFDLIKKDPQNAVYQSYAGENLNNYGELLMESGSLEKACEILREAIEIYEKLYKEKPDNLGYQAELSVALSQLGGCLKHQVPEESGAAKEKLEKALELQESLLDQQPENEKVKEAIALTEERLKGL”, the protein production result is listed as “failed”.

In the case of “MARTLFLEEGPMFFEKIAPYTYRIPRQGKMRVDAVFFASKEILKDLEAENYASLQQLMNVATLPGIVEPALAMPDIHWGYGFPIGGVAAFDPEEGGVVSPGGVGFDINCGVRLLASHLTLEDLLPRQKELADALYRLVPSGVGSERRDVRFSKRELKEILKEGAGWLVKRGYGYPEDVRFIESQGRLPWANPDKVSERAFERGAPQIGTLGSGNHFLEVQYVDEVYDEEAALAFGLFKGQVTVLIHTGSRGLGHQVCQDYVERFLKVAPRYGIELVDKQLAAAPIKSPEGQDYLQAMAAAANFAFANRQLIAHFVREAFEKVGFTPRDHGLRVLYDLAHNNAKFEEHRGRRVLVHRKGATRAFGPGHPEVPEEYRRVGQPVLVPGDMGRYSYVLAGTEKAMEVSFGSSCHGAGRKMSRHQAKKVARERNLVKELAERGILVRAATRATVDEEMPEAYKDVSLVVEAVEGAGIGKKVARLRPLIVVKG”, the protein production result is reported as “not failed”.

For the origin of these results see a protein production outcome set (Wang et al. 2014).
